The source of these data is patent US20240167007A1 (RHEINISCHE FRIEDRICH WILHELMS UNIVERSIT T BONN, published 2024).

The target in data set [1] is mannose 6-phosphate (M6P) receptor (MPR300) on human hepatoma cells (HuH7) (human), P11717. Put plainly: cell-based or functional assay.
Data set [2] deals with the molecule itself. Put plainly: size exclusion chromatography (Superdex 200), pH 7.0; self-association. The method, then: The indicated hASA-variants were separated by size exclusion chromatography using a Superdex 200 column (Amersham Pharmacia) linked to an Äkta FPLC system (GE Healthcare). The buffer was 150 mM NaCl, 20 mM Bis-Tris, pH 7.0. Fractions (0.5 ml) were collected and analysed on ASA activity using p-nitrocatechol sulfate as a substrate. Elution profiles of the four indicated hASA-variants are superimposed. While wildtype hASA presents as a dimer at neutral pH, E424A-mutants form octamers.
A general note: SEC sorts molecules by how far they enter the pores of the column.

Numbering of substitutions follows the chain as printed. Numbers in names are those of the source.

Chain of mannose 6-phosphate (M6P) receptor (MPR300) on human hepatoma cells (HuH7) (human), P11717 (P11717 41-2491): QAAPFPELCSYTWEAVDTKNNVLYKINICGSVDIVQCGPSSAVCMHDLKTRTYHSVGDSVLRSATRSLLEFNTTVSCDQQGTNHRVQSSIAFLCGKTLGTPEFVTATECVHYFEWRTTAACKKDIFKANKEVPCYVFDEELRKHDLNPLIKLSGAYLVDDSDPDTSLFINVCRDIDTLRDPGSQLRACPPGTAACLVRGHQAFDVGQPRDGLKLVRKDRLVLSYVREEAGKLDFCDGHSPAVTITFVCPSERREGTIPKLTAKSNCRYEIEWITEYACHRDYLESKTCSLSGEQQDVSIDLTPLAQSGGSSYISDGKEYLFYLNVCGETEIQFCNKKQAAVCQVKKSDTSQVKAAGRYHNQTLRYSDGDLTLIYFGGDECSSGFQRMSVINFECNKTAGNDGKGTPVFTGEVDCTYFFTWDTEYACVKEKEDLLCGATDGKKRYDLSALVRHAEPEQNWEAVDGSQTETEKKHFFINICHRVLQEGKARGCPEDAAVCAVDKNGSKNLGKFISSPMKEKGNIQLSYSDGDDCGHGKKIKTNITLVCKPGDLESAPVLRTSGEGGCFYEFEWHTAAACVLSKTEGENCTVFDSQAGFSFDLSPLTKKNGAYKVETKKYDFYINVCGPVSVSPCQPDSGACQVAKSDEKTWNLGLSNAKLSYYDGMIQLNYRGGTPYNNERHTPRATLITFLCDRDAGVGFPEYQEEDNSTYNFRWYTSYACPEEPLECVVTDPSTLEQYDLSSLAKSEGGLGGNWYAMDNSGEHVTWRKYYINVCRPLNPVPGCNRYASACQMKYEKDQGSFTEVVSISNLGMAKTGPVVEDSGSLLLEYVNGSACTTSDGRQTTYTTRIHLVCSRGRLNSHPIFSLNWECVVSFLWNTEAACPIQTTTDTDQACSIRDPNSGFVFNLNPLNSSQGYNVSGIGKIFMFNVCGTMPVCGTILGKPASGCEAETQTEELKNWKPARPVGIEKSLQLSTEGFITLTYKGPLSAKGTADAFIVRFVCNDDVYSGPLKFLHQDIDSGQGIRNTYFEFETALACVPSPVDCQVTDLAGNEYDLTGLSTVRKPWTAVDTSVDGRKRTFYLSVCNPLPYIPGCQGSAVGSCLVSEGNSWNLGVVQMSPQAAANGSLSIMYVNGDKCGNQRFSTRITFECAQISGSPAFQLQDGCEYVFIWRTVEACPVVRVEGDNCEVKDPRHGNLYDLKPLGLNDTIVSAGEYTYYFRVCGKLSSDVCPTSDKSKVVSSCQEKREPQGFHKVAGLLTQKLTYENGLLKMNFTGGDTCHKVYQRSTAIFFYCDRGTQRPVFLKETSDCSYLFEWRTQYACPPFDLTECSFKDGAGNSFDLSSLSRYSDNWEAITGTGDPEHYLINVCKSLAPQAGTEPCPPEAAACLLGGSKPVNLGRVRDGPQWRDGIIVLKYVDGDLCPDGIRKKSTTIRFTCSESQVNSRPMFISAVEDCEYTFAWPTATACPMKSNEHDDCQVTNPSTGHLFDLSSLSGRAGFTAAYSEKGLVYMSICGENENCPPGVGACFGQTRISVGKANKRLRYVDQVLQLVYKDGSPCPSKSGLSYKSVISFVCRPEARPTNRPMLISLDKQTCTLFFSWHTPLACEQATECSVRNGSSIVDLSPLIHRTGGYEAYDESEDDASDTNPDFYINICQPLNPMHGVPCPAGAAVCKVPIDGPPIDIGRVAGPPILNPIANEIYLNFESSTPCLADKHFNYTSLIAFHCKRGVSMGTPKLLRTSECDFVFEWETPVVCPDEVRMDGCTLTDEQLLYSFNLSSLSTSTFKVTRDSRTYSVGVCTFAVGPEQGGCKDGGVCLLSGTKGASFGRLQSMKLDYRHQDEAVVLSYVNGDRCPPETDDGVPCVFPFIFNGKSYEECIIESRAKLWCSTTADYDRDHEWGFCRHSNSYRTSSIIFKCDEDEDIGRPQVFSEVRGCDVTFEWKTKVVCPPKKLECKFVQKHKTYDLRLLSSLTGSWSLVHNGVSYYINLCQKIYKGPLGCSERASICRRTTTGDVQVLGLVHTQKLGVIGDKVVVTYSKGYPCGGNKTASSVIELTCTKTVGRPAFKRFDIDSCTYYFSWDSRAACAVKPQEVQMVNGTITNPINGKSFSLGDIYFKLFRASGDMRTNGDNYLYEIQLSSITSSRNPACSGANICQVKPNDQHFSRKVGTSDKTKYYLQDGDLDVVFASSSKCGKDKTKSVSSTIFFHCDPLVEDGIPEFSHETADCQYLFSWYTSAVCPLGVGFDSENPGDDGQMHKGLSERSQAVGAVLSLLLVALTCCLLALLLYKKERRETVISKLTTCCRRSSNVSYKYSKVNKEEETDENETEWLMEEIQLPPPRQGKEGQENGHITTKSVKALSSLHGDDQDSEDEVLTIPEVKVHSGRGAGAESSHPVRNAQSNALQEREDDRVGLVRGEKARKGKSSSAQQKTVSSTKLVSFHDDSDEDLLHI

B1: hARSA-mutant E424A, P15289 19-507 (enzyme)
chain: RPPNIVLIFADDLGYGDLGCYGHPSSTTPNLDQLAAGGLRFTDFYVPVSLCTPSRAALLTGRLPVRMGMYPGVLVPSSRGGLPLEEVTVAEVLAARGYLTGMAGKWHLGVGPEGAFLPPHQGFHRFLGIPYSHDQGPCQNLTCFPPATPCDGGCDQGLVPIPLLANLSVEAQPPWLPGLEARYMAFAHDLMADAQRQDRPFFLYYASHHTHYPQFSGQSFAERSGRGPFGDSLMELDAAVGTLMTAIGDLGLLEETLVIFTADNGPETMRMSRGGCSGLLRCGKGTTYEGGVREPALAFWPGHIAPGVTHELASSLDLLPTLAALAGAPLPNVTLDGFDLSPLLLGTGKSPRQSLFFYPSYPDEVRGVFAVRTGKYKAHFFTQGSAHSDTTADPACHASSSLTAHAPPLLYDLSKDPGENYNLLGGVAGATPEVLQALKQLQLLKAQLDAAVTFGPSQVARGEDPALQICCHPGCTPRPACCHCPDPHA
As to B1, the uptake by the human hepatoma cell line HuH7, compared to wildtype hARSA (internalized enzyme by ELISA) in data set [1] came out at 20%.

B2: wildtype human arylsulfatase A (enzyme)
chain: B1 chain with A406E
notes: Expressed in CHO cells and glycosylated; also called wildtype hARSA; wildtype hASA
Turning to B2, the binding result in data set [2] is given as “binds”.
